Assay results reported in US20050282254.

Legend:
[1] = target: recombinant protein of full size thioredoxine domain, protease recognition site and truncated C-terminal region (40 aa residues) of thioredoxin [thioredoxin: P0AA25]
substrate with 6/R5 site = target: T1, substrate with 6/R5 site
T1 chain: LGRAGARIFSS

substrate with 6/S5 site = target: T2, substrate with 6/S5 site
T2 chain: LGRAGASIFSS

substrate with 6/G5 site = target: T3, substrate with 6/G5 site
T3 chain: LGRAGAGIFSS

B1: Pro39 (C-terminal cysteine protease domain of Semliki Forest virus non-structural protein nsP2) (protein)
chain: KVIEGPAAPVDAFQNKANVCWAKSLVPVLDTAGIRLTAEEWSTIITAFKEDRAYSPVVALNEICTKYYGVDLDSGLFSAPKVSLYYENNHWDNRPGGRMYGFNAATAARLEARHTFLKGQWHTGKQAVIAERKIQPLSVLDNVIPINRRLPHALVAEYKTVKGSRVEWLVNKVRGYHVLLVSEYNLALPRRRVTWLSPLNVTGADRCYDLSLGLPADAGRFDLVFVNIHTEFRIHHYQQCVDHAMKLQMLGGDALRLLKPGGSLLMRAYGYADKISEAVVSSLSRKFSSARVLRPDCVTSNTEVFLLFSNFDNGKRPSTLHQMNTKLSAVYAGEAMHTAGC
[1]
  cleavage efficiency, Pro39, SDS-PAGE: non structured Ter substrate is poorly cleaved while Trx substrate is effectively cleaved
Substrate with 6/R5 site
  cleavage specificity, mass-spectrometry: cleavage specificity was preserved for all of these modified recognition sites (demonstrated by mass-spectrometry)
Substrate with 6/S5 site
  cleavage specificity, mass-spectrometry: cleavage specificity was preserved for all of these modified recognition sites (demonstrated by mass-spectrometry)
Substrate with 6/G5 site
  cleavage specificity, mass-spectrometry: cleavage specificity was preserved for all of these modified recognition sites (demonstrated by mass-spectrometry)
